Values of other authors in article doi:10.1101/2023.08.17.553741.

Molecular target: SARS-CoV-2 spike protein (target of cited Kd) (SARS-CoV-2) (UniProt P0DTC2)
Settings: 3' thiol C3, […] (temperature not stated), PBS 1X

Q: For “TTCCGGTTAATTTATGCTCTACCCGTCCACCTACCGGAATTTTTTTTTTTTTTTTTTTTACGGGTTTGGCGTCGGGCCTGGCGGGGGGATAGTGCGGT [dimeric aptamer (S1-20T-S2-thiolC3)]”, which Kd is on record?
A: 0.17 nM
